Experimental data taken from patent US20240392020A1 (JIANGSU HENGRUI PHARMACEUTICALS, published 2024).

T1: CEA on MKN45 cells (UniProt P06731 35-685)
T1 construct: whole, on cells
T1 sequence (looked up): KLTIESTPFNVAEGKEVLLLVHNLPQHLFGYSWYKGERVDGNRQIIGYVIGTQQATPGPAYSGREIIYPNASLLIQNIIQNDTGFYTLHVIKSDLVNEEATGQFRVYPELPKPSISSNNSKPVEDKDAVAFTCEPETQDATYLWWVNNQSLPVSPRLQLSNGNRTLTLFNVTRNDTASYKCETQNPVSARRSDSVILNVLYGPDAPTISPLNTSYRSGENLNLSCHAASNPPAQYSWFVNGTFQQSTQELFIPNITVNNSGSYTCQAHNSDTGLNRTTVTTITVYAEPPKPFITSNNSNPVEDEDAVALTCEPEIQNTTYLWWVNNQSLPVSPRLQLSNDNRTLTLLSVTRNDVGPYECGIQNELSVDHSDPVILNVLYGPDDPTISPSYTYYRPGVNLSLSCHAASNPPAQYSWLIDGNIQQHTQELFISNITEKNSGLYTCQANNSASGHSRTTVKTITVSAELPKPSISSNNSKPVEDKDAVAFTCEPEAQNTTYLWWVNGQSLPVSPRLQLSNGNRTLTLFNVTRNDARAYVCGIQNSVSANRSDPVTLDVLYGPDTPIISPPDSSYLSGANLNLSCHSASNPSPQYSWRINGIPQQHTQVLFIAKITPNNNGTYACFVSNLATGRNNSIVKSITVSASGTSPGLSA


Target: T1, CEA on MKN45 cells
Experiment: FACS, MKN45 cells

| Binder | EC50 |
| --- | --- |
| N17 (antibody) heavy: not shown light: EIVLTQSPGTLSLSPGERATLSCRASQNINNRFLAWYQQRPGQAPRLLIYAASSRATGVPDRFSGSGSGTDFTLTISRLEAEDFAMYHCQQYGSFPRTFGQGTMVDIKDQPQFSGAPRFLTRPKAFVVSVGKDATLSSQIVGNPTPQVSWEKDQQPVAAGARFRLAQDGDLYRLTILDLALGDSGQYVSRARNAIGEAFACVGLQVDAEA | 2.2 nM |
| N14 (antibody) heavy: not shown light: EIVLTQSPGTLSLSPGERATLSCRASQNINNRFLAWYQQRPGQAPRLLIYAASSRATGVPDRFSGSGSGTDFTLTISRLEAEDFAMYHCQQYGSFPRTFGQGTMVDIKSGAPRFLTRPLAFVVSVGKDATLSSQIVGNPTPQVSWEKDQQPVAAGARFRLAQDGDLYRLKILDLALGDSGQYVSRARNAIGEAFACVGLQVDAEA | 1.9 nM |
| N16 (antibody) heavy: not shown light: EIVLTQSPGTLSLSPGERATLSCRASQNINNRFLAWYQQRPGQAPRLLIYAASSRATGVPDRFSGSGSGTDFTLTISRLEAEDFAMYHCQQYGSFPRTFGQGTMVDIKSGAPRFLTRPLAFVVSVGKDATLSSQIVGNPTPQVSWEKDQQPVAAGARFRLAQDGDLYRLHILDLALGDSGQYVSRARNAIGEAFACVGLQVDAEA | 3.4 nM |
| N13 (antibody) heavy: not shown light: EIVLTQSPGTLSLSPGERATLSCRASQNINNRFLAWYQQRPGQAPRLLIYAASSRATGVPDRFSGSGSGTDFTLTISRLEAEDFAMYHCQQYGSFPRTFGQGTMVDIKSGAPRFKTRPKAFVVSVGKDATLSSQIVGNPTPQVSWEKDQQPVAAGARFRLAQDGDLYRLHILDLALGDSGQYVSRARNAIGEAFACVGLQVDAEA | 2.9 nM |
| N10 (antibody) heavy: not shown light: EIVLTQSPGTLSLSPGERATLSCRASQNINNRFLAWYQQRPGQAPRLLIYAASSRATGVPDRFSGSGSGTDFTLTISRLEAEDFAMYHCQQYGSFPRTFGQGTMVDIKSGAPRFLTRPKAFVVSVGKDATLSSQIVGNPTPQVSWEKDQQPVAAGARFRLAQDGDLYRLTILDLALGDSGQYVSRARNAIGEAFACVGLQVDAEA | 3 nM |

Second part, the binder after the results:

| EC50 | Binder |
| --- | --- |
| 2.8 nM | N20 (antibody) heavy: not shown light: EIVLTQSPGTLSLSPGERATLSCRASQNINNRFLAWYQQRPGQAPRLLIYAASSRATGVPDRFSGSGSGTDFTLTISRLEAEDFAMYHCQQYGSFPRTFGQGTMVDIKDQPQFSGAPRFKTRPKAFVVSVGKDATLSSQIVGNPTPQVSWEKDQQPVAAGARFRLAQDGDLYRLKILDLALGDSGQYVSRARNAIGEAFACVGLQVDAEA |
| 9.4 nM | N23 (antibody) heavy: not shown light: EIVLTQSPGTLSLSPGERATLSCRASQNINNRFLAWYQQRPGQAPRLLIYAASSRATGVPDRFSGSGSGTDFTLTISRLEAEDFAMYHCQQYGSFPRTFGQGTMVDIKDQPQFSGAPRFRTRPKAFVVSVGKDATLSSQIVGNPTPQVSWEKDQQPVAAGARFRLAQDGDLYRLHILDLALGDSGQYVSRARNAIGEAFACVGLQVDAEA |
| 4.3 nM | N19 (antibody) heavy: not shown light: EIVLTQSPGTLSLSPGERATLSCRASQNINNRFLAWYQQRPGQAPRLLIYAASSRATGVPDRFSGSGSGTDFTLTISRLEAEDFAMYHCQQYGSFPRTFGQGTMVDIKDQPQFSGAPRFKTRPKAFVVSVGKDATLSSQIVGNPTPQVSWEKDQQPVAAGARFRLAQDGDLYRLKILDLALGDSGQYVSRARNAIGEAFACVGLQVDAEA |
| 2.6 nM | N15 (antibody) heavy: not shown light: EIVLTQSPGTLSLSPGERATLSCRASQNINNRFLAWYQQRPGQAPRLLIYAASSRATGVPDRFSGSGSGTDFTLTISRLEAEDFAMYHCQQYGSFPRTFGQGTMVDIKSGAPRFLTRPLAFVVSVGKDATLSSQIVGNPTPQVSWEKDQQPVAAGARFRLAQDGDLYRLKILDLALGDSGQYVSRARNAIGEAFACVGLQVDAEA |
